Key:
[1] = biological target: human CD3 (on human Pan-T cells or donor PBMC) (human) (UniProt P07766); test: cell-based or functional assay
[2] = biological target: human CD3 (on the surface of Jurkat wild-type cells and of human Pan T cells) (human) (UniProt P07766); test: flow cytometry, isotype control antibody on Jurkat WT cells
[3] = biological target: human CD3 (on the surface of Jurkat wild-type cells and of human Pan T cells) (human) (UniProt P07766); test: flow cytometry, isotype control antibody on human Pan T cells
[4] = biological target: RT3-T3.5 (TCR-KO) cells; test: flow cytometry, isotype control antibody on RT3-T3.5 (TCR-KO) negative control cells
[5] = biological target: human CD3 (TCR/CD3 complex on the cell surface) (human) (UniProt P07766); test: flow cytometry, Pan-T cells, 1 ug/mL
[6] = biological target: human CD3 (TCR/CD3 complex on the cell surface) (human) (UniProt P07766); test: flow cytometry, Pan-T cells, 10 ug/mL
[7] = biological target: human CD3 (TCR/CD3 complex on the cell surface) (human) (UniProt P07766); test: flow cytometry, Jurkat WT cells, 1 ug/mL
[8] = biological target: human CD3 (TCR/CD3 complex on the cell surface) (human) (UniProt P07766); test: flow cytometry, Jurkat WT cells, 10 ug/mL
[9] = biological target: human CD3 (on the surface of Jurkat wild-type cells and of human Pan T cells) (human) (UniProt P07766); test: flow cytometry, control antibody on Jurkat WT cells
[10] = biological target: human CD3 (on the surface of Jurkat wild-type cells and of human Pan T cells) (human) (UniProt P07766); test: flow cytometry, control antibody on human Pan T cells
[11] = biological target: CD3 on Jurkat wild-type cells (UniProt P07766); test: flow cytometry on Jurkat WT cells, antibody at 1 ug/ml
[12] = biological target: CD3 on Jurkat wild-type cells (UniProt P07766); test: flow cytometry on Jurkat WT cells, antibody at 10 ug/ml
[13] = biological target: human CD3 (TCR/CD3 complex on the cell surface) (human) (UniProt P07766); test: flow cytometry, gMFI Jurkat WT over Jurkat TCRb KO, 1 ug/mL
[14] = biological target: human CD3 (TCR/CD3 complex on the cell surface) (human) (UniProt P07766); test: flow cytometry, gMFI Jurkat WT over Jurkat TCRb KO, 10 ug/mL
[15] = biological target: CD33 on KILR-HL60 cells (UniProt P20138); test: flow cytometry on KILR-HL60 (CD33 expressing) cells, antibody at 1 ug/ml
[16] = biological target: CD33 on KILR-HL60 cells (UniProt P20138); test: flow cytometry on KILR-HL60 (CD33 expressing) cells, antibody at 10 ug/ml
[17] = biological target: Jurkat TCRb knockout cells; test: flow cytometry, Jurkat KO (TCRb knockout) cells, negative control, 1 ug/mL
[18] = biological target: Jurkat TCRb knockout cells; test: flow cytometry, Jurkat KO (TCRb knockout) cells, negative control, 10 ug/mL
[19] = biological target: RT3-T3.5 (TCR-KO) cells; test: flow cytometry, control antibody on RT3-T3.5 (TCR-KO) negative control cells
[20] = biological target: Jurkat TCRb knockout cells; test: flow cytometry on Jurkat KO (TCRb knockout) cells, negative control, antibody at 1 ug/ml
[21] = biological target: Jurkat TCRb knockout cells; test: flow cytometry on Jurkat KO (TCRb knockout) cells, negative control, antibody at 10 ug/ml

Sequence of Gemtuzumab (antibody) (HC): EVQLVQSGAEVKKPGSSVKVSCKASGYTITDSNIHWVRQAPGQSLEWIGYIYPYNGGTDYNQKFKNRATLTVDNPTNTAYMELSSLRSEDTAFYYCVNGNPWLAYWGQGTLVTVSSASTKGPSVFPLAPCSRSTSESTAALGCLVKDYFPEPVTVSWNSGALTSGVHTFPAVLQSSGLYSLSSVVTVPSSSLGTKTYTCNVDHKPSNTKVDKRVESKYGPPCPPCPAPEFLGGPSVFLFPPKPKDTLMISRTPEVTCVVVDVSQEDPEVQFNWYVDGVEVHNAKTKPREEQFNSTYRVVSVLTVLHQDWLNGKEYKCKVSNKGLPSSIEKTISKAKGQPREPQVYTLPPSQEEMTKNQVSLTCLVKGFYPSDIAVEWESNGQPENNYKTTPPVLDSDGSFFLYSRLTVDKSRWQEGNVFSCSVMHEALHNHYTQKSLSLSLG
Sequence of Gemtuzumab (antibody) (LC): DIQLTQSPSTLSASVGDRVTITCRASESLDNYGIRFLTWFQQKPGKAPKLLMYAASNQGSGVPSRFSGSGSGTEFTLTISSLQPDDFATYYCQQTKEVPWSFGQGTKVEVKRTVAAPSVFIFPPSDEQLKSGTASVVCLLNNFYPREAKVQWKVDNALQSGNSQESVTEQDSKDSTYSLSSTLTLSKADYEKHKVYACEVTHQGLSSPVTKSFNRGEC
Sequence of human CD3 (on the surface of Jurkat wild-type cells and of human Pan T cells) (human) (P07766 23-207, chain 1 of 4): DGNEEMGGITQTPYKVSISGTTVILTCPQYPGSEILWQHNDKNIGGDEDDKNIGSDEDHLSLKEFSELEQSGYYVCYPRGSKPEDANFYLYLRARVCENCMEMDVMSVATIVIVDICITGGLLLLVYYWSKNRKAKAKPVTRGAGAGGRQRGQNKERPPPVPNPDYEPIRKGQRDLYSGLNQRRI
Sequence of human CD3 (on the surface of Jurkat wild-type cells and of human Pan T cells) (human) (P09693 23-182, chain 2 of 4, further chain): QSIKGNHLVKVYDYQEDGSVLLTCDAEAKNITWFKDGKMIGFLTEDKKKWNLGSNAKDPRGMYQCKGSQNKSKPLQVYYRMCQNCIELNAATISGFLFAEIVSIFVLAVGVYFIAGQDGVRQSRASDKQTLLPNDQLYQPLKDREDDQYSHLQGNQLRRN
Sequence of human CD3 (on the surface of Jurkat wild-type cells and of human Pan T cells) (human) (P04234 22-171, chain 3 of 4, further chain): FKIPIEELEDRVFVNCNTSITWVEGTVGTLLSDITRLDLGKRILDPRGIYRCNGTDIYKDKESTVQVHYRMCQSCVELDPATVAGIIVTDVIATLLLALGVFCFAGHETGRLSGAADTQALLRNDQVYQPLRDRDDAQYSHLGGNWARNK
Sequence of human CD3 (on the surface of Jurkat wild-type cells and of human Pan T cells) (human) (P20963 22-164, chain 4 of 4, further chain): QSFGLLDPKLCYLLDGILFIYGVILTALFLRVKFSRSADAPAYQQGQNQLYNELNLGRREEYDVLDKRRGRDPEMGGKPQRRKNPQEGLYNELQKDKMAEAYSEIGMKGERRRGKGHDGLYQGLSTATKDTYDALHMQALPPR
Sequence of CD3 on Jurkat wild-type cells (P07766 23-207, chain 1 of 3): as the sequence (P07766 23-207, chain 1 of 4) above
Sequence of CD3 on Jurkat wild-type cells (P04234 22-171, chain 2 of 3, further chain): as the sequence (P04234 22-171, chain 3 of 4, further chain) above
Sequence of CD3 on Jurkat wild-type cells (P09693 23-182, chain 3 of 3, further chain): as the sequence (P09693 23-182, chain 2 of 4, further chain) above
Sequence of human CD3 (on human Pan-T cells or donor PBMC) (human) (P07766 23-207, chain 1 of 4): as the sequence (P07766 23-207, chain 1 of 4) above
Sequence of human CD3 (on human Pan-T cells or donor PBMC) (human) (P04234 22-171, chain 2 of 4, further chain): as the sequence (P04234 22-171, chain 3 of 4, further chain) above
Sequence of human CD3 (on human Pan-T cells or donor PBMC) (human) (P09693 23-182, chain 3 of 4, further chain): as the sequence (P09693 23-182, chain 2 of 4, further chain) above
Sequence of human CD3 (on human Pan-T cells or donor PBMC) (human) (P20963 22-164, chain 4 of 4, further chain): as the sequence (P20963 22-164, chain 4 of 4, further chain) above
Sequence of human CD3 (TCR/CD3 complex on the cell surface) (human) (P07766 23-207, chain 1 of 4): as the sequence (P07766 23-207, chain 1 of 4) above
Sequence of human CD3 (TCR/CD3 complex on the cell surface) (human) (P09693 23-182, chain 2 of 4, further chain): as the sequence (P09693 23-182, chain 2 of 4, further chain) above
Sequence of human CD3 (TCR/CD3 complex on the cell surface) (human) (P04234 22-171, chain 3 of 4, further chain): as the sequence (P04234 22-171, chain 3 of 4, further chain) above
Sequence of human CD3 (TCR/CD3 complex on the cell surface) (human) (P20963 22-164, chain 4 of 4, further chain): as the sequence (P20963 22-164, chain 4 of 4, further chain) above
Sequence of CD33 on KILR-HL60 cells (P20138 18-364 limits assumed): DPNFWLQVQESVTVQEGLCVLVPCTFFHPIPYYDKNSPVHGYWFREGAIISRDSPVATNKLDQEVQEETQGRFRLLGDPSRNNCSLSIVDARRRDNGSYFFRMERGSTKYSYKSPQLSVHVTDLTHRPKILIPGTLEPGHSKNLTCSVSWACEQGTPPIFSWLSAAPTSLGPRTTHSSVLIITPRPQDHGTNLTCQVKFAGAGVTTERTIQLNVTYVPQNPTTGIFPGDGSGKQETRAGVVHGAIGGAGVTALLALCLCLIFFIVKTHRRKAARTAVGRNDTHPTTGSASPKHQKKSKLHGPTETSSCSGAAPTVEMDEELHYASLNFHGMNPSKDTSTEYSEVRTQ

Substance | % Positive [5] [%] | gMFI [5] [gMFI] | % Positive [6] [%] | gMFI [6] [gMFI] | gMFI [7] [gMFI] | gMFI [8] [gMFI] | gMFI [9] [gMFI] | gMFI [10] [gMFI] | flow cytometry signal [11] | flow cytometry signal [12] | Jurkat WT/KO (Fold) [13] [fold] | Jurkat WT/KO (Fold) [14] [fold] | flow cytometry signal [15] | flow cytometry signal [16] | gMFI [17] [gMFI] | gMFI [18] [gMFI] | gMFI [19] [gMFI] | flow cytometry signal [20] | flow cytometry signal [21] | also measured
Gemtuzumab (antibody) |  |  |  |  |  |  |  |  |  |  |  |  |  |  |  |  |  |  |  | Cytokine Release Assay (IFNγ), Donor 0, gMFI max [1]: 5340 gMFI; Cytokine Release Assay (IFNγ), Donor 1, gMFI max [1]: 4630 gMFI; Cytokine Release Assay (IFNγ), Donor 2, gMFI max [1]: 3580 gMFI; Cytokine Release Assay (IFNγ), Donor 3, gMFI max [1]: 4480 gMFI
Isotype Control (antibody) |  |  |  |  |  |  |  |  |  |  |  |  |  |  |  |  |  |  |  | gMFI [2]: 1710 gMFI; gMFI [3]: 4370 gMFI; gMFI [4]: 1820 gMFI
OKT3 (antibody) | 99.6 | 603000 | 99.9 | 394000 | 54000 | 45200 | 72300 | 300000 | 82100 | 35800 | 11 | 11.1 | 14800 | 11600 | 4900 | 4070 | 4220 | 5180 | 3680 | 
SP34 (antibody) |  |  |  |  |  |  | 114000 | 333000 |  |  |  |  |  |  |  |  | 7160 |  |  | 
UCHT1 (antibody) |  |  |  |  |  |  | 102000 | 359000 |  |  |  |  |  |  |  |  | 5410 |  |  | 
hIgG1 (antibody) | 0.8 | 1860 | 0.8 | 1780 | 1770 | 1740 |  |  | 2700 | 2390 | 0.9 | 0.9 | 34300 | 30200 | 2020 | 1860 |  | 2830 | 2620 | 

— patent publication US20260167721A1
